Like-named read-outs stand apart in the source and are kept apart here.
Assays:
streptavidin = streptavidin (Streptomyces avidinii, UniProt P22629); assay: ELISA: biotinylated Angiopep-2 binding to streptavidin (FIG. 7)
astrocytes = assay: Cellular assay: internalization of streptavidin in astrocytes (FIG. 9); format: cell-based; conditions: noncovalently bound cargo
streptavidin AF647 = streptavidin AF647 (Streptomyces avidinii, UniProt P22629); assay: Saturable delivery (uptake) of streptavidin AF647 (FIG. 6); format: cell-based; conditions: increasing concentration of bifunctional molecule, cells not given
streptavidin AF647, sequence (P22629 25-183): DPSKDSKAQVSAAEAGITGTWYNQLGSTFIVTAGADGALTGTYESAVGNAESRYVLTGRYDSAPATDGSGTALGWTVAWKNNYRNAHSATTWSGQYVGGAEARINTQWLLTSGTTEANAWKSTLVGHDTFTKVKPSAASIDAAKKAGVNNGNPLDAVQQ

[1] = test system: murine brain endothelial cells; conditions: noncovalently bound streptavidin AF647 cargo, FIG. 8, FIG. 9
streptavidin AF488 = streptavidin AF488 (Streptomyces avidinii, UniProt P22629); assay: Degradation of streptavidin AF488 (FIG. 12); format: cell-based
streptavidin AF488, sequence (P22629 25-183): as above
From the text: Some studies have been done on other bifunctional molecules comprising an LRP1 binding motif depicted in FIG. 2 and a biotin Target binding motif, wherein these bifunctional molecules also noncovalently bind streptavidin (FIG. 11).

streptavidin, sequence (P22629 25-183, species assumed): as the sequence (P22629 25-183) above

| Substance | binding to streptavidin (ELISA) (streptavidin) | internalization of streptavidin into astrocytes (astrocytes) | level of streptavidin AF647 uptake (streptavidin AF647) | delivery / internalization of streptavidin into brain endothelial cells [1] | delivery / internalization of streptavidin into brain endothelial cells ([1]; listed as Angiopep-2-Biotin) | degradation of target protein streptavidin AF488 (streptavidin AF488) |
| --- | --- | --- | --- | --- | --- | --- |
| biotinylated Angiopep-2 | binds streptavidin | mediated internalization of target protein Streptavidin | saturable delivery of streptavidin AF647 | delivers streptavidin AF647 to murine brain endothelial cells | mediated internalization of target protein Streptavidin | – |
| Ac.Ac.Biotin Angiopep-2: Angiopep-2 modified via acetylation and bonded to a biotin Target binding motif | – | – | – | – | – | mediated degradation of streptavidin AF488 |

— patent US20240148885A1, “TARGETED BIFUNCTIONAL DEGRADERS” (YALE UNIVERSITY, priority 2021, published 2024)
